In PMC4162405 (Cell reports, 2014):

T1: purified human PALB2 (Partner and localizer of BRCA2) (human, UniProt Q86YC2 1-1186)
T1 sequence (looked up): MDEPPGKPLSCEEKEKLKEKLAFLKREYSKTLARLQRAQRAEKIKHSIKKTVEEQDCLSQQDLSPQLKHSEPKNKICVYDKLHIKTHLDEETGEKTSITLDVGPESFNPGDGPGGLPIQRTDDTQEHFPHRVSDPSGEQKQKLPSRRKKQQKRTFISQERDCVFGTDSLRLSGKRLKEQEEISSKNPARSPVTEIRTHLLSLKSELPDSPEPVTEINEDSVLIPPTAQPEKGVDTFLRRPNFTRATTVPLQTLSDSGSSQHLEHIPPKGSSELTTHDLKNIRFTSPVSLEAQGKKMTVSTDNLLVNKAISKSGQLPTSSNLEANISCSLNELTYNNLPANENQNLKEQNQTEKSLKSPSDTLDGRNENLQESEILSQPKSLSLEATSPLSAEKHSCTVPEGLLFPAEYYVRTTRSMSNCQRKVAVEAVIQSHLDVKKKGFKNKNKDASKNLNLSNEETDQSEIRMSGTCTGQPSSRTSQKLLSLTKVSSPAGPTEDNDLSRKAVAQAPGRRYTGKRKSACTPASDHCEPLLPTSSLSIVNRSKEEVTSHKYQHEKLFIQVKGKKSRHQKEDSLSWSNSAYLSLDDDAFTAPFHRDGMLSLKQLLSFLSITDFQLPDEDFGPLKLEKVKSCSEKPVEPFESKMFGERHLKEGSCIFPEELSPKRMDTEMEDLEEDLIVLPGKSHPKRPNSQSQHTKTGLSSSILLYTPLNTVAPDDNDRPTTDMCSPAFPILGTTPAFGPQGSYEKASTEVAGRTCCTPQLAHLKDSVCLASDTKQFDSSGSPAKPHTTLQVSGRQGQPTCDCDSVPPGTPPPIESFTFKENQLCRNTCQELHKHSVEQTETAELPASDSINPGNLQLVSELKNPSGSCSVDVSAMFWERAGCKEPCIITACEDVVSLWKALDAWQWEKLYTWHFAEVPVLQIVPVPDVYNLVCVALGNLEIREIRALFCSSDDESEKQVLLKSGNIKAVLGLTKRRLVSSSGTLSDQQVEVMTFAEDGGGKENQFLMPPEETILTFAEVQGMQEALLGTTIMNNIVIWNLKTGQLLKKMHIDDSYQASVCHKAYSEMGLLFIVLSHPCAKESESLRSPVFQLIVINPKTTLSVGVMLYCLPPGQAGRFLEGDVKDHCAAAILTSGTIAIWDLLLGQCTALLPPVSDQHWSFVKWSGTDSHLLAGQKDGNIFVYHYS

B1: Polymerase eta (Polη), purified human (enzyme, UniProt Q9Y253 1-713, looked up)
chain: MATGQDRVVALVDMDCFFVQVEQRQNPHLRNKPCAVVQYKSWKGGGIIAVSYEARAFGVTRSMWADDAKKLCPDLLLAQVRESRGKANLTKYREASVEVMEIMSRFAVIERASIDEAYVDLTSAVQERLQKLQGQPISADLLPSTYIEGLPQGPTTAEETVQKEGMRKQGLFQWLDSLQIDNLTSPDLQLTVGAVIVEEMRAAIERETGFQCSAGISHNKVLAKLACGLNKPNRQTLVSHGSVPQLFSQMPIRKIRSLGGKLGASVIEILGIEYMGELTQFTESQLQSHFGEKNGSWLYAMCRGIEHDPVKPRQLPKTIGCSKNFPGKTALATREQVQWWLLQLAQELEERLTKDRNDNDRVATQLVVSIRVQGDKRLSSLRRCCALTRYDAHKMSHDAFTVIKNCNTSGIQTEWSPPLTMLFLCATKFSASAPSSSTDITSFLSSDPSSLPKVPVTSSEAKTQGSGPAVTATKKATTSLESFFQKAAERQKVKEASLSSLTAPTQAPMSNSPSKPSLPFQTSQSTGTEPFFKQKSLLLKQKQLNNSSVSSPQQNPWSNCKALPNSLPTEYPGCVPVCEGVSKLEESSKATPAEMDLAHNSQSMHASSASKSVLEVTQKATPNPSLLAAEDQVPCEKCGSLVPVWDMPEHMDYHFALELQKSFLQPHSSNPQVVSAVSHQGKRNPKSPLACTNKRPRPEGMQTLESFFKPLTH
B2: GST-PALB2 WD40 domain (residues 853–1186) (domain or fragment, human, UniProt Q86YC2 853-1186, looked up)
chain: GNLQLVSELKNPSGSCSVDVSAMFWERAGCKEPCIITACEDVVSLWKALDAWQWEKLYTWHFAEVPVLQIVPVPDVYNLVCVALGNLEIREIRALFCSSDDESEKQVLLKSGNIKAVLGLTKRRLVSSSGTLSDQQVEVMTFAEDGGGKENQFLMPPEETILTFAEVQGMQEALLGTTIMNNIVIWNLKTGQLLKKMHIDDSYQASVCHKAYSEMGLLFIVLSHPCAKESESLRSPVFQLIVINPKTTLSVGVMLYCLPPGQAGRFLEGDVKDHCAAAILTSGTIAIWDLLLGQCTALLPPVSDQHWSFVKWSGTDSHLLAGQKDGNIFVYHYS
B3: GST-BRCA2 truncation 4 (residues 1338–1781) (domain or fragment, human, UniProt P51587 1338-1781, looked up)
chain: GSDSSKNDTVCIHKDETDLLFTDQHNICLKLSGQFMKEGNTQIKEDLSDLTFLEVAKAQEACHGNTSNKEQLTATKTEQNIKDFETSDTFFQTASGKNISVAKESFNKIVNFFDQKPEELHNFSLNSELHSDIRKNKMDILSYEETDIVKHKILKESVPVGTGNQLVTFQGQPERDEKIKEPTLLGFHTASGKKVKIAKESLDKVKNLFDEKEQGTSEITSFSHQWAKTLKYREACKDLELACETIEITAAPKCKEMQNSLNNDKNLVSIETVVPPKLLSDNLCRQTENLKTSKSIFLKVKVHENVEKETAKSPATCYTNQSPYSVIENSALAFYTSCSRKTSVSQTSLLEAKKWLREGIFDGQPERINTADYVGNYLYENNSNSTIAENDKNHLSEKQDTYLSNSSMSNSYSYHSDEVYNDSGYLSKNKLDSGIEPVLKNVED

Legend:
[1] = molecular target: T1, purified human PALB2 (Partner and …); assay: co-IP
[2] = molecular target: B1; assay: pull-down
[3] = molecular target: B1; assay: co-IP

Binder: B1
- binding result [1]: binds

Binder: B2
- binding result [2]: binds

Binder: B3
- binding result [3]: binds
